Source: the supplement of paper PMC9170038

Test system: MS2 coat protein
Experiment: apparent KD of MS2 coat protein; designed switch direction (-1 OFF switch, 1 ON switch): -1; higher = weaker reporter binding
Procedure, shortened: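 The reported apparent KD is a per-design median over clusters, from curve fits of normalised cluster fluorescence. Protein titrations used SNAP-549-labelled MS2 coat protein, doubled from 0.7 or 1.5 nM to 3 µM, in Tris-HCl pH 7.5 buffer with KCl, MgCl2, BSA, DTT, tRNA and Tween-20, with no input, 200 uM small-molecule ligand, or an oligonucleotide input. The RNA switches were transcribed on Illumina chips by stalled E. coli RNA polymerase.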

[1] = Eterna round: R95, input ligand: FMN 200 uM
[2] = Eterna round: R95, input ligand: microRNA oligo, concentration not stated
[3] = Eterna round: R95, input ligand: none
[4] = input ligand: microRNA oligo, concentration not stated

| Sequence | apparent KD of MS2 coat protein [1] [nM] | apparent KD of MS2 coat protein [2] [nM] | apparent KD of MS2 coat protein [3] [nM] | apparent KD of MS2 coat protein (input ligand: FMN 200 uM) [nM] | apparent KD of MS2 coat protein [4] [nM] | apparent KD of MS2 coat protein (input ligand: none) [nM] |
| --- | --- | --- | --- | --- | --- | --- |
| CCGAGCAGACGGAGAUCCAACAUGAGGAUCACCCAUGUCUCAAAAGCUUUUUGCUUGUCUUAUUCUCCUCUGUUCUC [Qureorxe] (puzzle: Sensor v3, turn-off variant 1) | 12.5 | 29.2 | 11.3 |  |  |  |
| AGGGAUAAAGGAUAUACAUGAGGAUCACCCAUGUUGAGGAAGGUUAGAGGUGGCGAUAGUAGAAGGUUAGGUAG [JR_Exclu3_Sub081] (puzzle: Exclusion 3) |  | 77 |  |  |  |  |
| GCAGGUUAAGUCAGGAUAUACCUAUGGAUACAUAGGUAGAAGGGACAUGAGGAUCACCCAUGUGACUCGCCUGC [Fiskers BMX 4 - 61] (puzzle: Brourd's mod of Exclusion 4) |  | 25.6 |  |  |  |  |
| GCCAGAGCAGGAUAUCUAAUAUAUCACAUGAGGAUCACCCAUGUCCAGCGAAAGCUGGAGGGAGAAGGGCUCUGGC [Fiskers Ex 5 - 19] (puzzle: Exclusion 5) | 53.6 | 98.4 | 106 |  |  |  |
| UACAUGAGGAUCACCCAUGUUUUGUCGUGUAUGGUAUUUAUCUAGGAUAUCAAUUGAUUUAUGUAUGAGAAGGAGAAUAUUAAU [JMF's solution 63] (Eterna round: R96, puzzle: Exclusion NG 3) |  |  |  | 41.1 | 34.9 | 34.8 |
| ACAAGCAAGACAGGAUAUACGAAGCACGUUGUGGUCUGUGACAUGAGGAUCACCCAUGUGUGAGAGUAGAAGGGUUUUGAUCCC [Edarenraat] (Eterna round: R96, puzzle: Exclusion NG 2) |  |  |  | 1140 | 685 | 828 |
| AAAUAACAAGCGAGAUCCUACAUGAGGAUCACCCAUGUGCUCGUCUUAUAAAGUACUAUCACGAAAGUGAUAGUACA [Sensor 3, v1 - 13] (puzzle: Sensor v3, turn-off variant 1) | 16.4 | 50.8 | 16.3 |  |  |  |
| CAGGCUACAAACGCUCGUCACAUGAGGAUCACCCAUGUACGCCUCUAUCGUAAGUCCAGCGUUCGCUGGCAAGGGUA [Eternabot (Original) Solution 19] (Eterna round: R97, puzzle: Sensor, turn-off variant 1) |  |  |  | 47.5 |  | 56.2 |
| UUUAAUUUAAUUAAGAUCACAUGAGGAUCACCCAUGUAUAUAUAGGAUAUCAGCUCGAAUAGAGCUGAGAAGGAUAUAUACAUA [ExNG3/4-A4] (Eterna round: R96, puzzle: Exclusion NG 3) |  |  |  |  | 39.4 |  |
| CUUUUGUGAGGAUAUCAGUAGUAGAACAAUAGUACUACUACUGAGAAGGCACAUGAGGAUCACCCAUGUUCCUU [Fiskers Ex 4 Super stable 44 mod 6] (puzzle: Exclusion 4) |  | 15.4 |  |  |  |  |
| GCACGCAGUGUUAGGAUAUUAAUGGCACCGCAACGUAAGAAGGAACAUGAGGAUCACCCAUGUGUGCUAGAGAA [Eternabot (Original) Solution 14] (Eterna round: R97, puzzle: Brourd's mod of Exclusion 4) |  |  |  | 30.1 |  | 29.5 |
| ACGUGGUGAGGAUAUGCACAAUACAAGAGUGUCAGAUCCGGACAUGAGGAUCACCCAUGUAGAAGGCACCCAAU [Eternabot (Original) Solution 10] (Eterna round: R97, puzzle: Exclusion 2) |  |  |  | 41 |  | 50.8 |
| ACGAAAGCAAGCAAGUGAAACAUGAGGAUCACCCAUGUCCUCAUUUGCUCGUCUUAUAAAAGCUAUCGAAAGAUAGC [Mat - Sensor v3 - turn-off var 1 - Eli Mod - D47] (puzzle: Sensor v3, turn-off variant 1) | 11.9 | 157 | 13.2 |  |  |  |
| CACCGUUACAGAGGAUAUGUCACAUGAGGAUCACCCAUGUAAUAAAUGAGAAUUUCGAAUGUAACACAGAAGGCUGGAAUCGGC [Ostricism 76 - Jieux - Exclusion NG 2] (Eterna round: R96, puzzle: Exclusion NG 2) |  |  |  | 37.1 | 18.1 | 26.5 |
| GAUCGCAUAGUCAGGAUAUCGAAGUAUCGGGACCGCGAGAAGGGACAUGAGGAUCACCCAUGUUUCAUGGGAAG [Riesaratce] (Eterna round: R97, puzzle: Brourd's mod of Exclusion 4) |  |  |  | 182 |  | 113 |
| GAACCGCGAGGAUAUACAGUCGAGUCCAUUACGUGUCUCGGACUUGAGGAUCACCCAAGUAGAAGGCGUCUCAG [salish99_ex2_r4_634] (Eterna round: R97, puzzle: Exclusion 2) |  |  |  | 96.3 |  | 188 |
| AGUCCUGGAGUUAGGAUAUGAAGUAUCACUGCACUUCAGAAGGGACUUGAGGAUCACCCAAGUAGCCGUGAGGG [salish99_bmod_ex4_r4_003] (Eterna round: R97, puzzle: Brourd's mod of Exclusion 4) |  |  |  | 108 |  | 56.7 |
